# In PMC9482650, “Quantitative fragmentomics allow affinity mapping of interactomes” (Nature Communications, 2022):
# T1: RAPGEF6, Q8TEU7
# T1 sequence (Q8TEU7 525-625, limits assumed, looked up): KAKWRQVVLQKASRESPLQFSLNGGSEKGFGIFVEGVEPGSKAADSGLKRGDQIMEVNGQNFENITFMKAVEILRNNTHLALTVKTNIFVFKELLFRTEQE
# T2: LIN7C, Q9NUP9
# T2 sequence (Q9NUP9 88-185, limits assumed, looked up): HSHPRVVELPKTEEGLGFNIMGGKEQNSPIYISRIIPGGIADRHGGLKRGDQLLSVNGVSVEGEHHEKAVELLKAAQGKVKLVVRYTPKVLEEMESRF
# T3: TJP3_3, O95049
# T3 sequence (O95049 375-456, limits assumed, looked up): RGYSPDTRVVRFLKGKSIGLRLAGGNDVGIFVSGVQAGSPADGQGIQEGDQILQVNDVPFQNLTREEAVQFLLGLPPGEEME
# T4: DLG3_3, Q92796
# T4 sequence (Q92796 374-475, limits assumed, looked up): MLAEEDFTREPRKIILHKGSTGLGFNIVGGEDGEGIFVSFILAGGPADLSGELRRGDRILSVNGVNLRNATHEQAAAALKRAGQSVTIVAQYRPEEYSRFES
# T5: LNX2_3, Q8N448
# T5 sequence (Q8N448 463-564, limits assumed, looked up): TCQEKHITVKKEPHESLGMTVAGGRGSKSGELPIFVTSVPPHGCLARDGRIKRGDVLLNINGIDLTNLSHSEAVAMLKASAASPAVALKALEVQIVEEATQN
# T6: APBA3_1, O96018
# T6 sequence (O96018 389-490, limits assumed, looked up): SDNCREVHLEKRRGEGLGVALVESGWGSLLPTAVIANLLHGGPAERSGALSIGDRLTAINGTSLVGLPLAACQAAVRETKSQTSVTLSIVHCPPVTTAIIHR
# T7: ARHGAP21, Q5T5U3
# T7 sequence (Q5T5U3 45-169, limits assumed, looked up): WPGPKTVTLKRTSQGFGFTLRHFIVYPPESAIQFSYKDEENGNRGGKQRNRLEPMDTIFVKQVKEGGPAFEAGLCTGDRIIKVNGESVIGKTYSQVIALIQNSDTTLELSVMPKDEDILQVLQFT
# T8: APBA1_1, Q02410
# T8 sequence (Q02410 651-752, limits assumed, looked up): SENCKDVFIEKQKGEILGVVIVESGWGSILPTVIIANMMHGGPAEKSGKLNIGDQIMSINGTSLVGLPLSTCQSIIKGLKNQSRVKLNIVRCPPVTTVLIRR
# T9: SHANK1, Q9Y566
# T9 sequence (Q9Y566 658-767, limits assumed, looked up): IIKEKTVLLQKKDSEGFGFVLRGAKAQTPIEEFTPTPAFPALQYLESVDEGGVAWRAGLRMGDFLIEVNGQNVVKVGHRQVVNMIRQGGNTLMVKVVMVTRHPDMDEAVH
# T10: FRMPD1, Q5SYB0
# T10 sequence (Q5SYB0 52-145, limits assumed, looked up): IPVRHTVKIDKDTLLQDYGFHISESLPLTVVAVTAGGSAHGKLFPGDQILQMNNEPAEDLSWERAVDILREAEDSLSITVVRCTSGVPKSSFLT
# T11: LRRC7, Q96NW7
# T11 sequence (Q96NW7 1440-1537, limits assumed, looked up): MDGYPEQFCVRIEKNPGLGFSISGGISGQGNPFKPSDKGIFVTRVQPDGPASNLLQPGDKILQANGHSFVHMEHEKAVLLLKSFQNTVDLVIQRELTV
# Biological target: T1, RAPGEF6, Q8TEU7
# Experiment: holdup assay
# Set-up: key: below the threshold = too weak to quantify, mostly under pKd 3.1 to 4
# Settings: plain residues with an end cap or a label only (N-terminal biotin on a linker: ado-ado)
row,Binder,pKd
1,"TKGPRGPTRV [SAPCD1, Q5SSQ6]",below the threshold

# Biological target: T2, LIN7C, Q9NUP9
# Experiment: holdup assay
# Set-up: key: below the threshold = too weak to quantify, mostly under pKd 3.1 to 4
# Settings: plain residues with an end cap or a label only (N-terminal biotin on a linker: ado-ado)
row,Binder,pKd
1,"TKGPRGPTRV [SAPCD1, Q5SSQ6]",below the threshold

# Biological target: MAGI2_3, Q86UL8
# Sequence (Q86UL8 600-682): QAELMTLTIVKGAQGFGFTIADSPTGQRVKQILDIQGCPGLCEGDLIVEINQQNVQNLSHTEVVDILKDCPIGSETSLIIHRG
# Experiment: holdup assay
# Set-up: key: below the threshold = too weak to quantify, mostly under pKd 3.1 to 4
# Settings: plain residues with an end cap or a label only (N-terminal biotin on a linker: ado-ado)
row,Binder,pKd
1,"TKGPRGPTRV [SAPCD1, Q5SSQ6]",4.69

# Biological target: MAGI2_4, Q86UL8
# Sequence (Q86UL8 772-865): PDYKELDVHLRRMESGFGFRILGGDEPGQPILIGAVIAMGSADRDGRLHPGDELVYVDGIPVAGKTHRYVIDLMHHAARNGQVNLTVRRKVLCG
# Experiment: holdup assay
# Set-up: key: below the threshold = too weak to quantify, mostly under pKd 3.1 to 4
# Settings: plain residues with an end cap or a label only (N-terminal biotin on a linker: ado-ado)
row,Binder,pKd
1,"TKGPRGPTRV [SAPCD1, Q5SSQ6]",below the threshold

# Biological target: DLG2_2, Q15700
# Sequence (Q15700 189-283): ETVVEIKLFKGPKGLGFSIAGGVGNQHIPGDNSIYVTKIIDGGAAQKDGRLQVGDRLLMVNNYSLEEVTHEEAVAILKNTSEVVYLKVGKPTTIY
# Experiment: holdup assay
# Set-up: key: below the threshold = too weak to quantify, mostly under pKd 3.1 to 4
# Settings: plain residues with an end cap or a label only (N-terminal biotin on a linker: ado-ado)
row,Binder,pKd
1,"TKGPRGPTRV [SAPCD1, Q5SSQ6]",4.38

# Biological target: NHERF4_2, Q86UT5
# Sequence (Q86UT5 220-308): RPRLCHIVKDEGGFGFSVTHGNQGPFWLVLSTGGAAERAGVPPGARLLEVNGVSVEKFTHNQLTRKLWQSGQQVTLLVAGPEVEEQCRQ
# Experiment: holdup assay
# Set-up: key: below the threshold = too weak to quantify, mostly under pKd 3.1 to 4
# Settings: plain residues with an end cap or a label only (N-terminal biotin on a linker: ado-ado)
row,Binder,pKd
1,"TKGPRGPTRV [SAPCD1, Q5SSQ6]",below the threshold

# Biological target: T3, TJP3_3, O95049
# Experiment: holdup assay
# Set-up: key: below the threshold = too weak to quantify, mostly under pKd 3.1 to 4
# Settings: plain residues with an end cap or a label only (N-terminal biotin on a linker: ado-ado)
row,Binder,pKd
1,"TKGPRGPTRV [SAPCD1, Q5SSQ6]",below the threshold

# Biological target: Inadl_4, Q8NI35
# Sequence (Q8NI35 547-651): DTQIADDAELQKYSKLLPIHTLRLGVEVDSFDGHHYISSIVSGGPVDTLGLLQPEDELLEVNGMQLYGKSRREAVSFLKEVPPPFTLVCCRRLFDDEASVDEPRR
# Experiment: holdup assay
# Set-up: key: below the threshold = too weak to quantify, mostly under pKd 3.1 to 4
# Settings: plain residues with an end cap or a label only (N-terminal biotin on a linker: ado-ado)
row,Binder,pKd
1,"TKGPRGPTRV [SAPCD1, Q5SSQ6]",below the threshold

# Biological target: T4, DLG3_3, Q92796
# Experiment: holdup assay
# Set-up: key: below the threshold = too weak to quantify, mostly under pKd 3.1 to 4
# Settings: plain residues with an end cap or a label only (N-terminal biotin on a linker: ado-ado)
row,Binder,pKd
1,"TKGPRGPTRV [SAPCD1, Q5SSQ6]",4.44

# Biological target: T5, LNX2_3, Q8N448
# Experiment: holdup assay
# Set-up: key: below the threshold = too weak to quantify, mostly under pKd 3.1 to 4
# Settings: plain residues with an end cap or a label only (N-terminal biotin on a linker: ado-ado)
row,Binder,pKd
1,"TKGPRGPTRV [SAPCD1, Q5SSQ6]",below the threshold

# Biological target: T6, APBA3_1, O96018
# Experiment: holdup assay
# Set-up: key: below the threshold = too weak to quantify, mostly under pKd 3.1 to 4
# Settings: plain residues with an end cap or a label only (N-terminal biotin on a linker: ado-ado)
row,Binder,pKd
1,"TKGPRGPTRV [SAPCD1, Q5SSQ6]",below the threshold

# Biological target: PARD3_3, Q8TEW0
# Sequence (Q8TEW0 582-685): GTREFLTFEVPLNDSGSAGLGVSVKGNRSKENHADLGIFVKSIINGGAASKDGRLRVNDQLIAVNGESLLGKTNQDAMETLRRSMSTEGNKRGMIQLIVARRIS
# Experiment: holdup assay
# Set-up: key: below the threshold = too weak to quantify, mostly under pKd 3.1 to 4
# Settings: plain residues with an end cap or a label only (N-terminal biotin on a linker: ado-ado)
row,Binder,pKd
1,"TKGPRGPTRV [SAPCD1, Q5SSQ6]",below the threshold

# Biological target: PDLIM1, O00151
# Sequence (O00151 1-87): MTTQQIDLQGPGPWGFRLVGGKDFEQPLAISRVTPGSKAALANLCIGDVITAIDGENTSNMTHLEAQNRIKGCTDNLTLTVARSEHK
# Experiment: holdup assay
# Set-up: key: below the threshold = too weak to quantify, mostly under pKd 3.1 to 4
# Settings: plain residues with an end cap or a label only (N-terminal biotin on a linker: ado-ado)
row,Binder,pKd
1,"TKGPRGPTRV [SAPCD1, Q5SSQ6]",below the threshold

# Biological target: Inadl_8, Q8NI35
# Sequence (Q8NI35 1425-1530): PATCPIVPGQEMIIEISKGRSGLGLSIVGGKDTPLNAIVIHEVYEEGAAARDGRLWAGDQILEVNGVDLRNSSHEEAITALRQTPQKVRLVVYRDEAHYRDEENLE
# Experiment: holdup assay
# Set-up: key: below the threshold = too weak to quantify, mostly under pKd 3.1 to 4
# Settings: plain residues with an end cap or a label only (N-terminal biotin on a linker: ado-ado)
row,Binder,pKd
1,"TKGPRGPTRV [SAPCD1, Q5SSQ6]",5.64

# Biological target: T7, ARHGAP21, Q5T5U3
# Experiment: holdup assay
# Set-up: key: below the threshold = too weak to quantify, mostly under pKd 3.1 to 4
# Settings: plain residues with an end cap or a label only (N-terminal biotin on a linker: ado-ado)
row,Binder,pKd
1,"TKGPRGPTRV [SAPCD1, Q5SSQ6]",below the threshold

# Biological target: AHNAK1, Q09666
# Sequence (Q09666 4-100): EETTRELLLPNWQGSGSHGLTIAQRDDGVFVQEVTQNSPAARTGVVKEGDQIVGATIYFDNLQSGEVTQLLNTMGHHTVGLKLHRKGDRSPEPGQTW
# Experiment: holdup assay
# Set-up: key: below the threshold = too weak to quantify, mostly under pKd 3.1 to 4
# Settings: plain residues with an end cap or a label only (N-terminal biotin on a linker: ado-ado)
row,Binder,pKd
1,"TKGPRGPTRV [SAPCD1, Q5SSQ6]",below the threshold

# Biological target: MAGI3_2, Q5TCQ9
# Sequence (Q5TCQ9 398-503): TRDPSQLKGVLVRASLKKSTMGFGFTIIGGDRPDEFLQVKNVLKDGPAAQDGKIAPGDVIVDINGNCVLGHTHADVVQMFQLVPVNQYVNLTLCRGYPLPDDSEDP
# Experiment: holdup assay
# Set-up: key: below the threshold = too weak to quantify, mostly under pKd 3.1 to 4
# Settings: plain residues with an end cap or a label only (N-terminal biotin on a linker: ado-ado)
row,Binder,pKd
1,"TKGPRGPTRV [SAPCD1, Q5SSQ6]",5.41

# Biological target: FRMPD2_1, Q68DX3
# Sequence (Q68DX3 770-861): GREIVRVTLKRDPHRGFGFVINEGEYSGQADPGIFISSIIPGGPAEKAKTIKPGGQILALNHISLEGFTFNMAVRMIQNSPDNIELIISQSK
# Experiment: holdup assay
# Set-up: key: below the threshold = too weak to quantify, mostly under pKd 3.1 to 4
# Settings: plain residues with an end cap or a label only (N-terminal biotin on a linker: ado-ado)
row,Binder,pKd
1,"TKGPRGPTRV [SAPCD1, Q5SSQ6]",4.35

# Biological target: GRID2IP_1, A4D2P6
# Sequence (A4D2P6 1-87): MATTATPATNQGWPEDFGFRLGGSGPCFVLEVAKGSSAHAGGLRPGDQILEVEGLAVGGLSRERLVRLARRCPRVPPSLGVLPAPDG
# Experiment: holdup assay
# Set-up: key: below the threshold = too weak to quantify, mostly under pKd 3.1 to 4
# Settings: plain residues with an end cap or a label only (N-terminal biotin on a linker: ado-ado)
row,Binder,pKd
1,"TKGPRGPTRV [SAPCD1, Q5SSQ6]",below the threshold

# Biological target: NHERF4_1, Q86UT5-2
# Sequence (Q86UT5 other isoform, or with tags, fused parts or gaps): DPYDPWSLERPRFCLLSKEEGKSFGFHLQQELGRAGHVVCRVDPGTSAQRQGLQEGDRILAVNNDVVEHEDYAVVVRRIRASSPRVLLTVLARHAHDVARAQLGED
# Experiment: holdup assay
# Set-up: key: below the threshold = too weak to quantify, mostly under pKd 3.1 to 4
# Settings: plain residues with an end cap or a label only (N-terminal biotin on a linker: ado-ado)
row,Binder,pKd
1,"TKGPRGPTRV [SAPCD1, Q5SSQ6]",below the threshold

# Biological target: PTPN3, P26045
# Sequence (P26045 505-587): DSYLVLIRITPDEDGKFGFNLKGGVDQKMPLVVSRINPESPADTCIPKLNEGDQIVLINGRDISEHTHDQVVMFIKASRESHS
# Experiment: holdup assay
# Set-up: key: below the threshold = too weak to quantify, mostly under pKd 3.1 to 4
# Settings: plain residues with an end cap or a label only (N-terminal biotin on a linker: ado-ado)
row,Binder,pKd
1,"TKGPRGPTRV [SAPCD1, Q5SSQ6]",below the threshold

# Biological target: T8, APBA1_1, Q02410
# Experiment: holdup assay
# Set-up: key: below the threshold = too weak to quantify, mostly under pKd 3.1 to 4
# Settings: plain residues with an end cap or a label only (N-terminal biotin on a linker: ado-ado)
row,Binder,pKd
1,"TKGPRGPTRV [SAPCD1, Q5SSQ6]",below the threshold

# Biological target: LDB3, O75112
# Sequence (O75112 1-94): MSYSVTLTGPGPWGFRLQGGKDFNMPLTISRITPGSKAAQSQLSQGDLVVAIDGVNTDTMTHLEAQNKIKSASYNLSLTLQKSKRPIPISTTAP
# Experiment: holdup assay
# Set-up: key: below the threshold = too weak to quantify, mostly under pKd 3.1 to 4
# Settings: plain residues with an end cap or a label only (N-terminal biotin on a linker: ado-ado)
row,Binder,pKd
1,"TKGPRGPTRV [SAPCD1, Q5SSQ6]",below the threshold

# Biological target: T9, SHANK1, Q9Y566
# Experiment: holdup assay
# Set-up: key: below the threshold = too weak to quantify, mostly under pKd 3.1 to 4
# Settings: plain residues with an end cap or a label only (N-terminal biotin on a linker: ado-ado)
row,Binder,pKd
1,"TKGPRGPTRV [SAPCD1, Q5SSQ6]",4.26

# Biological target: T10, FRMPD1, Q5SYB0
# Experiment: holdup assay
# Set-up: key: below the threshold = too weak to quantify, mostly under pKd 3.1 to 4
# Settings: plain residues with an end cap or a label only (N-terminal biotin on a linker: ado-ado)
row,Binder,pKd
1,"TKGPRGPTRV [SAPCD1, Q5SSQ6]",below the threshold

# Biological target: T11, LRRC7, Q96NW7
# Experiment: holdup assay
# Set-up: key: below the threshold = too weak to quantify, mostly under pKd 3.1 to 4
# Settings: plain residues with an end cap or a label only (N-terminal biotin on a linker: ado-ado)
row,Binder,pKd
1,"TKGPRGPTRV [SAPCD1, Q5SSQ6]",below the threshold

# Biological target: Inadl_2, Q8NI35
# Sequence (Q8NI35 238-335): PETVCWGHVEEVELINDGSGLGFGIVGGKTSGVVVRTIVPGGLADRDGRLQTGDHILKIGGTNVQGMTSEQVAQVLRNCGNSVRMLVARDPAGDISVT
# Experiment: holdup assay
# Set-up: key: below the threshold = too weak to quantify, mostly under pKd 3.1 to 4
# Settings: plain residues with an end cap or a label only (N-terminal biotin on a linker: ado-ado)
row,Binder,pKd
1,"TKGPRGPTRV [SAPCD1, Q5SSQ6]",below the threshold
